From patent US6632627B2, “Glutamine: fructose-6-phosphate amidotransferase, its production and use” (Takeda Chemical Industries, Ltd., priority 1997, dated 2003)

Test: Detection of GFAT activity of the proteins (HPLC detection of PITC-bound glucosamine-6-phosphate)
Format: biochemical
Conditions: 1 μl recombinant protein in 100 μl reaction mixture; 6 mM glutamine, 10 mM fructose-6-phosphate; pH 7.5; room temperature, 5 hours
Experimental: GFAT activity of the proteins: TGC028-3 and TGC028-4 was measured in the following manner. In a solution (0.1 M K2HP04, 50 mM KCl, 50 mM HEPES, 1 mM EDTA, 5 mM DTT, pH 7.5) were added glutamine and fructose-6-phosphate to final concentrations of 6 mM and 10 mM, respectively. Then, in 100 μl of this reaction mixture was added 1 μl of TGC028-3 or TGC028-4 protein, and the reaction mixture was incubated at room temperature for 5 hours. Thereafter, the reaction mixture was subjected to centrifugal filtration using a Ultrafree C3GC (cut-off molecular weight: 10,000; Millipore) and the filtrate obtained was mixed with an equal volume of a solution consisted of methanol, water, and triethylamine at the ratio of 2:2:1. After the mixture was dried in vacuo, the residue was dissolved in 20 μl of a mixed solution of methanol, water, and triethylamine-phenyl isothiocyanate (PITC) at the ratio of 7:1:1:1 and the reaction was carried out at room temperature for 20 minutes. […] Elution was carried out using a mobile phase comprising 232 mM sodium acetate, 0.1% triethylamine and 5% acetonitrile (pH 6.0) at a flow rate of 1 ml/minute and PITC-bound glucosamine-6-phosphate was detected at UV 254 nm.

B1: TGC028-4: human-derived protein having the amino acid sequence of SEQ ID NO:3 (682 residues), constructed from TGC028-3 and a GFAT-like DNA fragment (protein)
chain: MCGIFAYMNYRVPRTRKEIFETLIKGLQRLEYRGYDSAGVAIDGNNHEVKERHIQLVKKRGKVKALDEELYKQDSMDLKVEFETHFGIAHTRWATHGVPSAVNSHPQRSDKGNEFVVIHNGIITNYKDLRKFLESKGYEFESETDTETIAKLIKYVFDNRETEDITFSTLVERVIQQLEGAFALVFKSVHYPGEAVATRRGSPLLIGVRSKYKLSTEQIPILYRTCTLENVKNICKTRMKRLDSSACLHAVGDKAVEFFFASDASAIIEHTNRVIFLEDDDIAAVADGKLSIHRVKRSASDDPSRAIQTLQMELQQIMKGNFSAFMQKEIFEQPESVFNTMRGRVNFETNTVLLGGLKDHLKEIRRCRRLIVIGCGTSYHAAVATRQVLEELTELPVMVELASDFLDRNTPVFRDDVCFFISQSGETADTLLALRYCKDRGALTVGVTNTVGSSISRETDCGVHINAGPEIGVASTKAYTSQFISLVMFGLMMSEDRISLQNRRQEIIRGLRSLPELIKEVLSLEEKIHDLALELYTQRSLLVMGRGYNYATCLEGALKIKEITYMHSEGILAGELKHGPLALIDKQMPVIMVIMKDPCFAKCQNALQQVTARQGRPIILCSKDDTESSKFAYKTIELPHTVDCLQGILSVIPLQLLSFHLAVLRGYDVDFPRNLAKSVTVE
GFAT activity: formation of glucosamine-6-phosphate (peak of PITC-bound glucosamine-6-phosphate by HPLC, UV 254 nm): a peak was confirmed at the position corresponding to PITC-bound glucosamine-6-phosphate

B2: TGC028-3: human-derived protein having the amino acid sequence of SEQ ID NO:2 (615 residues), novel GFAT protein expressed in E. coli (protein)
chain: MCGIFAYMNYRVPRTRKEIFETLIKGLQRLEYRGYDSAGVAIDGNNHEVKERHIQLVKKRGKVKALDEELYKQDSMDLKVEFETHFGIAHTRWATHGVPSAVNSHPQRSDKGNEFVVIHNGIITNYKDLRKFLESKGYEFESETDTETIAKLIKYVFDNRETEDITFSTLVERVIQQLEGAFALVFKSVHYPGEAVATRRGSPLLIGVRSKYKLSTEQIPILYRTCTLENVKNICKTRMKRLDSSACLHAVGDKAVEFFFASDASAIIEHTNRVIFLEDDDIAAVADGKLSIHRVKRSASDDPSRAIQTLQMELQQIMKGNFSAFMQKEIFEQPESVFNTMRGRVNFETNTVLLGGLKDHLKEIRRCRRLIVIGCGTSYHAAVATRQVLEELTELPVMVELASDFLDRNTPVFRDDVCFFISQSGETADTLLALRYCKDRGALTVGVTNTVGSSISRETDCGVHINAGPEIGVASTKAYTSQFISLVMFGLMMSEDRISLQNRRQEIIRGLRSLPELIKEVLSLEEKIHDLALELYTQRSLLVMGRGYNYATCLEGALKIKEITYMHSEGILAGELKHGPLALIDKQMPVIMVIMKDPCFAKCQNALQQVTARQV
GFAT activity: formation of glucosamine-6-phosphate (peak of PITC-bound glucosamine-6-phosphate by HPLC, UV 254 nm): a peak was confirmed at the position corresponding to PITC-bound glucosamine-6-phosphate
